Patent US10704056B2, “Constitutively active ABA receptor mutants” (The Regents of the University of California, priority 2011, dated 2020)
Numbering of substitutions follows the chain as printed. Names and notes keep the numbering of the source.

T1: ABI1 (Arabidopsis thaliana, UniProt P49597)
T1 construct: Full length ABI1 and ABI2 were cloned into a modified pSUMO vector; made in house; host or cells: E. coli BL21 (DE3) pLysS
T1 sequence (P49597 1-434): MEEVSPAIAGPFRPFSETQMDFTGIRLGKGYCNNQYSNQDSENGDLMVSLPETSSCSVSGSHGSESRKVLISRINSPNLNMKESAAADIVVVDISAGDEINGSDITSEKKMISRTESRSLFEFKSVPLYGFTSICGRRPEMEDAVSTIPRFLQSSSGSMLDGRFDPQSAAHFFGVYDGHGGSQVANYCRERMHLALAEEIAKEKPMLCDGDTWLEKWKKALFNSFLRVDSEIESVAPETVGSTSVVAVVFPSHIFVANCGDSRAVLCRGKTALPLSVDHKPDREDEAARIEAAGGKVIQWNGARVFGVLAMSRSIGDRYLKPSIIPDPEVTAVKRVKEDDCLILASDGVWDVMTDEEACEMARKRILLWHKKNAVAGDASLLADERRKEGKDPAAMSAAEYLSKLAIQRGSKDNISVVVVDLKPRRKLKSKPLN

T2: ABI2 (Arabidopsis thaliana, UniProt O04719)
T2 construct: Full length ABI1 and ABI2 were cloned into a modified pSUMO vector; made in house; host or cells: E. coli BL21 (DE3) pLysS
T2 sequence (O04719 1-423): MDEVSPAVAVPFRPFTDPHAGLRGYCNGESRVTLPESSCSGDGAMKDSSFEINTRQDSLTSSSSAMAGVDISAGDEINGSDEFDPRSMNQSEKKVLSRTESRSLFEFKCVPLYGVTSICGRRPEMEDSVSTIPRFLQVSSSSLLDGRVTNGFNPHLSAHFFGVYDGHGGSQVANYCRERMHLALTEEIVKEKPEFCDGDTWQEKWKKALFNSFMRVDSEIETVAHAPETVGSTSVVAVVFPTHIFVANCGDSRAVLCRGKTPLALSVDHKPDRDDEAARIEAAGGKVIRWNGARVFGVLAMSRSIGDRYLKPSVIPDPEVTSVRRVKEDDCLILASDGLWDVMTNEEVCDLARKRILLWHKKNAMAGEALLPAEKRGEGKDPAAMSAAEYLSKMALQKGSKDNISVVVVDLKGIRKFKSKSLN

B1: PYR1^CA3: PYR1 triple mutant (H60P, V83F, F159V) (protein)
chain: HHHHHHMPSELTPEERSELKNSIAEFHTYQLDPGSCSSLHAQRIHAPPELVWSIVRRFDKPQTYKPFIKSCSVEQNFEMRVGCTRDVIFISGLPANTSTERLDILDDERRVTGFSIIGGEHRLTNYKSVTTVHRFEKENRIWTVVLESYVVDMPEGNSEDDTRMVADTVVKLNLQKLATVAEAMARNSGDGSGSQVT
B2: PYR1^CA4: PYR1 quadruple mutant (H60P, V83F, F159V, M158I) (protein)
chain: B1 chain with M164I
B3: PYL9^CA4: PYL9 mutant (V85F, Y160I, F161V) (protein)
chain: HHHHHHMMDGVEGGTAMYGGLETVQYVRTHHQHLCRENQCTSALVKHIKAPLHLVWSLVRRFDQPQKYKPFVSRCTVIGDPEIGSLREVNFKSGLPATTSTERLELLDDEEHILGIKIIGGDHRLKNYSSILTVHPEIIEGRAGTMVIESFVVDVPQGNTKDETCIVVEALIRCNLKSLADVSERLASQDITQ
B4: PYL2^CA4: PYL2 mutant (H65P, V87F, M1641, F165V) (protein)
chain: HHHHHHMSSSPAVKGLTDEEQKTLEPVIKTYHQFEPDPTTCTSLITQRIHAPASVVWPLIRRFDNPERYKPFVKRCRLISGDGDVGSVREVTFISGLPASTSTERLEFVDDDHRVLSFRVVGGEHRLKNYKSVTSVNEFLNQDSGKVYTVVLESYTVDIPEGNTEEDTKIVVDTVVKLNLQKLGVAATSAPMHDDE

The molecules below were run on HAB1 (assay: In vitro PP2C phosphatase (pNPP) receptor activation assay with HAB1). Details: 600 nM GST-HAB1, 0-4800 nM receptor, no ABA.
Type: biochemical, Arabidopsis
Description: Recombinant receptor proteins were produced as follows: Coding sequences were cloned into pET28 yielding 6×HIS (SEQ ID NO:173) fusions proteins and transformed into E. coli expression strain BL21. […]. Cells were stored at −80° C. before purification. After thawing, cells were sonicated on ice five times for 30 sec with 30 sec resting intervals. A cleared lysate was obtained after centrifugation at 12,000×g for 10 min and applied to 1 ml of Ni-NTA column (Qiagen) and washed with 20 column volumes of Buffer A containing 30 mM imidazole. Bound protein was eluted with 10 ml of Buffer A with 250 mM imidazole. The elutate was dialyzed against TBS. The purified recombinant proteins were then used together with recombinant phosphatases in receptor assays. In these assays, receptor activity is indicated by inhibition of phosphatase activity, as inferred from initial reaction velocities for GST-HAB1 mediated hydrolysis of the synthetic phosphatase substrate pNPP. Reactions contained 600 nM GST-HAB1 and either 0, 600, 1200, 2400 or 4800 nM 6×His-PYR1 or variants in a reaction buffer consisting of 33 mM Tris-OAc, pH 7.9, 66 mM KOAc, 0.1% BSA, 25 mM Mn(OAc)2, 50 mM pNPP. To infer the level of receptor activation with respect to fully activated wild type receptor, control reactions were also conducted using saturating levels of (+)-ABA (10 μM), and 600 nM wild type PYR1 and HAB1. Immediately after mixing proteins and substrates, reactions were monitored for hydrolysis of pNPP at A405 at ˜10 second intervals over 20 minutes using a Wallac plate reader. Reaction progressions were plotted, initial velocities calculated and converted to specific activities using a standard curve for 4-nitrophenol made in the same buffer system volumes/plate reader used for enzymatic reaction measurements. The values shown are expressed as %-control phosphatase activity levels as measured in the absence of receptor protein. The average specific activity level of GST-HAB1 utilized in our experiments was 4000 μmol/min/mg, when assayed on the phosphatase substrate pNPP in the absence of PYR1 or other receptors, as described using the methods above.
(§1) Full length ABI1 and ABI2 were cloned into a modified pSUMO vector (LifeSensors Inc, USA) vector yielding 6×His-SUMO fusion proteins; GST-HAB1 was expressed and purified as previously described (Park et al., 2009). Mutant receptors were cloned into pET28 yielding 6×His-fusion proteins. […]. The cultures were pre-incubated 2 hours at 30° C. and, for PP2C expression, media was supplemented with 4 mM MnCl2 one hour after inoculation. After pre-incubation, IPTG was added (1 mM) and cells were induced at 15° C. for 16 hours, after which they were collected by centrifugation, resuspended in 5 ml Buffer A (50 mM NaH2PO4, 300 mM NaCl) +10 mM imidazole, pH 8.0 and stored at −80° C. For purification, cells were thawed, sonicated on ice (60 seconds) and a cleared lysate was then applied a 1 ml-bed volume column of Ni-NTA (Qiagen, USA), washed with 20 column volumes of Buffer A+30 mM imidazole and bound protein eluted with 1 ml of Buffer A+250 mM imidazole. For receptors, the elutate was dialyzed against TBS and for PP2Cs, fusion proteins were desalted by passage over a Sephadex G50 column.
The purified receptors and phosphatases were then used in receptor assays where receptor activation is indicated by inhibition of phosphatase activity, as inferred from initial reaction velocities for PP2C-mediated hydrolysis of the synthetic phosphatase substrate pNPP in reactions containing 600 nM PP2C and either 0, 600, 1200, 2400 or 4800 nM receptor. The receptor assay buffer consisted of 33 mM Tris-OAc, pH 7.9, 66 mM KOAc, 0.1% BSA, 25 mM Mn(OAc)2, 0.1%13-ME and 50 mM pNPP. Immediately after mixing proteins and substrates, reactions were monitored for hydrolysis of pNPP at A405 at ˜2 minutes intervals using a Wallac plate reader. […]

Row | Molecule | basal receptor activity (inhibition of HAB1 phosphatase activity in the absence of ABA)
1 | B1 | dramatically increased basal PYR1 activity
2 | B2 | dramatically increased basal PYR1 activity
3 | B3 | highly activated in the absence of ABA
4 | B4 | highly activated in the absence of ABA

Each molecule was assayed against T1, ABI1 (assay: In vitro PP2C phosphatase (pNPP) receptor activation assay with ABI1). Details: 600 nM PP2C, 0-4800 nM receptor, no ABA.
Type: biochemical
Description: as §1
(§2) The purified receptors and phosphatases were then used in receptor assays where receptor activation is indicated by inhibition of phosphatase activity, as inferred from initial reaction velocities for PP2C-mediated hydrolysis of the synthetic phosphatase substrate pNPP in reactions containing 600 nM PP2C and either 0, 600, 1200, 2400 or 4800 nM receptor. The receptor assay buffer consisted of 33 mM Tris-OAc, pH 7.9, 66 mM KOAc, 0.1% BSA, 25 mM Mn(OAc)2, 0.1%13-ME and 50 mM pNPP. Immediately after mixing proteins and substrates, reactions were monitored for hydrolysis of pNPP at A405 at ˜2 minutes intervals using a Wallac plate reader. Reaction progressions were plotted, initial velocities calculated and converted to specific activities by comparison to a standard curve for 4-nitrophenol made in the same buffer system. PP2C activity values shown in figures are expressed as %-control phosphatase activity levels, as measured under identical reaction conditions in the absence of receptor protein. The average specific activity level of GST-HAB1, 6×His-SUMO-ABI1 and 6×His-SUMO-ABI2 utilized in our experiments was 4500 (GST-PP2C) or 2500 (SUMO-PP2C) μmol/min/mg, when assayed using the phosphatase substrate pNPP in the absence of PYR1 or other receptors.

Row | constitutive receptor activity on ABI1 in the absence of ABA | Molecule
5 | interact with ABI1 and ABI2 | B1
6 | interact with ABI1 and ABI2 | B2
7 | active towards multiple PP2Cs | B3
8 | active towards multiple PP2Cs | B4

The molecules below were run against T2, ABI2 (assay: In vitro PP2C phosphatase (pNPP) receptor activation assay with ABI2). Details: 600 nM PP2C, 0-4800 nM receptor, no ABA.
Type: biochemical
Description: as §1, §2

Row | constitutive receptor activity on ABI2 in the absence of ABA | Molecule
9 | interact with ABI1 and ABI2 | B1
10 | interact with ABI1 and ABI2 | B2
11 | active towards multiple PP2Cs | B3
12 | active towards multiple PP2Cs | B4
